Measurements taken from patent publication US20240317834A1, “COMPOSITIONS AND METHODS FOR NEUROLOGICAL DISEASES” (CODA BIOTHERAPEUTICS, INC., priority 2020, published 2024).

Legend:
Lenti-X 293T cells = assay: YFP fluorescence quenching anion reporter plate reader assay of engineered receptors stimulated with acetylcholine or a non-native ligand; type: cell-based
Summary of the method: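 Lenti-X 293T cells carrying a YFP anion reporter were transiently transfected with channel DNA and assayed the next day in HEPES-buffered ECS at pH 7.2. Ligand (acetylcholine or non-native ligand) was added in NaI-substituted ECS. Percent quench was the mean of the last 10 s relative to the 15 s pre-addition baseline.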

rat DRG neurons = assay: Rheobase shift and evoked action potentials in rat DRG neurons (current clamp); type: cell-based
Protocol: Using whole cell manual patch clamp electrophysiology in HEK293 cells, rat DRG neurons and rat hippocampal neurons, the EC50 of the various engineered receptors disclosed herein to Ach and non-native ligands was measured using the Hill equation with peak current measurements from escalating doses of ligand. The rheobase shift was also measured in rat DRG neurons, which reflects the efficacy of the receptors. To calculate the rheobase, first, the amount of current that can produce an action potential was determined. Then the ligand was added, followed by a step wise increase in the current injected up to 700 pA.
For manual patch clamp experiments, Cells plated on coverslips were visualized at 10× and 40× on an inverted fluorescence microscope (Olympus). Recordings were made with an Axopatch 200B amplifier and Digidata 1550B (Molecular Devices) at RT using 3-6 MOhm glass patch electrodes (Sutter, BF150-86-10). Unless otherwise stated, recordings were made in extracellular solution (ECS) containing: 140 mM sodium chloride, 4 mM potassium chloride, 1 mM magnesium chloride, 2 mM calcium chloride, 10 mM HEPES, and 10 mM D-(+)-glucose (pH=7.3 with sodium hydroxide, osmolarity=305−315 mOsm). An 8-line reservoir (AutoMate Scientific) in combination with an 8-channel zero-dead-volume perfusion pencil (AutoMate Scientific) was used for perfusion. Data was acquired using pClamp software (Molecular Devices). Traces were either analyzed in Clampfit (Molecular Devices) or using custom Python code. Plotting and statistics were performed in GraphPad Prism.
DRG rheobase experiments were performed in current clamp mode using a potassium-based internal solution containing: 100 mM potassium D-gluconate, 28 mM potassium chloride, 1 mM magnesium chloride hexahydrate, 5 mM magnesium ATP, 10 mM HEPES, and 0.5 mM EGTA (pH=7.2 with potassium hydroxide, osmolarity=290-295 mOsm, calculated liquid junction potential=−13.5 mV). To measure DRG input resistance and rheobase, 500 ms current steps (−200 pA to 700 pA) were applied the membrane in the presence and absence of a compound. No holding current was applied to the membrane for cells included in the final datasets. Data were acquired at 10 kHz, with Bessel filter at 2 kHz and series resistance compensation at 100%. Rheobase was defined as the smallest depolarizing current injection required to cause an action potential to fire in the cell. In a subset of cells, the rheobase was ambiguous, since the action potential appeared to be graded in amplitude. In these cases, a […] of the trace clarified the rheobase. Input resistance was measured from the negative current injections, calculated as the difference in membrane potential at steady state divided by the current injection amplitude and then averaged across the four negative current steps for each recording. Resting membrane potential was measured from the first 100 ms of each sweep, averaged for each recording, and corrected for liquid junction potential. One-way ANOVA with multiple comparisons was used to test for significance of difference in rheobase and input resistance between baseline, drug, and wash conditions.

B1: CODA1025: engineered chimeric LGIC receptor, R101F, L131G in SEQ ID NO: 33 (protein)
chain: MRCSPGGVWLALAASLLHVSLQGEFQRKLYKELVKNYNPLERPVANDSQPLTVYFSLSLLQIMDVDEKNQVLTTNIWLQMSWTDHYLQWNVSEYPGVKTVFFPDGQIWKPDILLYNSADERFDATFHTNVGVNSSGHCQYLPPGIFKSSCPMDLKNFPMDVQTCKLKFGSWSYGGWSLDLQMQEADISGYIPNGEWDLVGIPGKRSERFYECCKEPYPDVTFTVTMRRRMGYYLIQMYIPSLLIVILSWISFWINMDAAPARVGLGITTVLTMTTQSSGSRASLPKVSYVKAIDIWMAVCLLFVFSALLEYAAVNFVSRQHKELLRFRRKRRHHKSPMLNLFQEDEAGEGRFNFSAYGMGPACLQAKDGISVKGANNSNTTNPPPAPSKSPEEMRKLFIQRAKKIDKISRIGFPMAFLIFNMFYWIIYKIVRREDVHNQ
modifications: synthetic sequence of chimeric LGIC
- YFP fluorescence quenching using CNL001 (Lenti-X 293T cells; 1 nM CNL001, first column): −18.527%
- YFP fluorescence quenching using CNL001 (Lenti-X 293T cells; 1 nM CNL001, second column): −21.577%
- YFP fluorescence quenching using TC-5619/Bradanicline (Lenti-X 293T cells; 1 nM brd): −10.61%
- YFP fluorescence quenching using TC-5619/Bradanicline (Lenti-X 293T cells; 3 nM brd): 2.63%
- YFP fluorescence quenching using Varenicline (Lenti-X 293T cells; 3 nM var, first column): 48.074
- YFP fluorescence quenching using Varenicline (Lenti-X 293T cells; 3 nM var, second column): 60.978
- YFP fluorescence quenching using CNL001 (Lenti-X 293T cells; 10 nM CNL001, first column): 14.063%
- YFP fluorescence quenching using CNL001 (Lenti-X 293T cells; 10 nM CNL001, second column): 49.818%
- YFP fluorescence quenching using TC-5619/Bradanicline (Lenti-X 293T cells; 10 nM brd): 17.71%
- YFP fluorescence quenching using TC-5619/Bradanicline (Lenti-X 293T cells; 30 nM brd): 68.48%
- YFP fluorescence quenching using Facinicline (Lenti-X 293T cells; 30 nM fac): −8.99
- YFP fluorescence quenching using Varenicline (Lenti-X 293T cells; 30 nM var, first column): 70.023
- YFP fluorescence quenching using Varenicline (Lenti-X 293T cells; 30 nM var, second column): 69.433
- YFP fluorescence quenching using CNL001 (Lenti-X 293T cells; 50 nM CNL001, first column): 77.765%
- YFP fluorescence quenching using CNL001 (Lenti-X 293T cells; 50 nM CNL001, second column): 79.23%
- YFP fluorescence quenching using ABT-126 (Lenti-X 293T cells; 50 nM abt): −11.53%
- YFP fluorescence quenching using CNL001 (Lenti-X 293T cells; 100 nM CNL001, first column): 80.544%
- YFP fluorescence quenching using CNL001 (Lenti-X 293T cells; 100 nM CNL001, second column): 80.695%
- YFP fluorescence quenching using CNL002 (Lenti-X 293T cells; 100 nM CNL002): 12.48%
- YFP fluorescence quenching using ABT-126 (Lenti-X 293T cells; 100 nM abt): −7.61%
- YFP fluorescence quenching using AZD-0328 (Lenti-X 293T cells; 100 nM azd0328): 6.26%
- YFP fluorescence quenching using ABT-126 (Lenti-X 293T cells; 300 nM abt): 6.55%
- YFP fluorescence quenching using AZD-0328 (Lenti-X 293T cells; 300 nM azd0328): 37.98%
- YFP fluorescence quenching using TC-5619/Bradanicline (Lenti-X 293T cells; 300 nM brd): 75.12%
- YFP fluorescence quenching using Facinicline (Lenti-X 293T cells; 300 nM fac): 10.21
- YFP fluorescence quenching using Varenicline (Lenti-X 293T cells; 300 nM var, first column): 78.989
- YFP fluorescence quenching using Varenicline (Lenti-X 293T cells; 300 nM var, second column): 79.21
- YFP fluorescence quenching using Varenicline (Lenti-X 293T cells; 500 nM var, first column): 79.212
- YFP fluorescence quenching using Varenicline (Lenti-X 293T cells; 500 nM var, second column): 79.771
- YFP fluorescence quenching using CNL001 (Lenti-X 293T cells; 1 uM CNL001, first column): 81.191%
- YFP fluorescence quenching using CNL001 (Lenti-X 293T cells; 1 uM CNL001, second column): 82.385%
- YFP fluorescence quenching using CNL002 (Lenti-X 293T cells; 1 uM CNL002): 46.04%
- YFP fluorescence quenching using ABT-126 (Lenti-X 293T cells; 1 uM abt): 25.08%
- YFP fluorescence quenching using TC-6987 (Lenti-X 293T cells; 1 uM tc6987): −13.32
- YFP fluorescence quenching using Varenicline (Lenti-X 293T cells; 1 uM var, first column): 79.538
- YFP fluorescence quenching using Varenicline (Lenti-X 293T cells; 1 uM var, second column): 80.577
- YFP fluorescence quenching using TC-6987 (Lenti-X 293T cells; 10 uM tc6987): 43.71
- YFP fluorescence quenching using CNL002 (Lenti-X 293T cells; 30 uM CNL002): 39.82%
- YFP fluorescence quenching using AZD-0328 (Lenti-X 293T cells; 30 uM azd0328): 79.31%
- YFP fluorescence quenching using Facinicline (Lenti-X 293T cells; 30 uM fac): 78.24
- YFP fluorescence quenching using TC-6987 (Lenti-X 293T cells; 500 uM tc6987): 53.98
- percent quench of YFP fluorescence, 30 nM TC-6683 (Lenti-X 293T cells; TC-6683 30 nM): −1.645%
- percent quench of YFP fluorescence, 300 nM TC-6683 (Lenti-X 293T cells; TC-6683 300 nM): 3.043%
- percent quench of YFP fluorescence, 3 uM TC-6683 (Lenti-X 293T cells; TC-6683 3 uM): 0.082%
- percent quench of YFP fluorescence, 30 uM TC-6683 (Lenti-X 293T cells; TC-6683 30 uM): 2.449%
- percent quench of YFP fluorescence, 100 uM TC-6683 (Lenti-X 293T cells; TC-6683 100 uM): 10.437%
- percent quench of YFP fluorescence, 10 uM ach (Lenti-X 293T cells; acetylcholine 10 uM): 12.57%
- percent quench of YFP fluorescence, 50 uM ach (Lenti-X 293T cells; acetylcholine 50 uM): −3.46%
- percent quench of YFP fluorescence, 100 uM ach (Lenti-X 293T cells; acetylcholine 100 uM): 12.65%
- percent quench of YFP fluorescence, 300 uM ach (Lenti-X 293T cells; acetylcholine 300 uM): −6.96%
- percent quench of YFP fluorescence, 500 uM ach (Lenti-X 293T cells; acetylcholine 500 uM): −6.77%
- percent quench of YFP fluorescence, 1 mM ach (Lenti-X 293T cells; acetylcholine 1 mM): 19.42%
- percent quench of YFP fluorescence, 3 mM ach (Lenti-X 293T cells; acetylcholine 3 mM): 65.06%
- Rheobase Shift; Rat DRG Neurons, +TC-5619 @ EC90 (rat DRG neurons; +TC-5619 @ EC90): 560 ± 72 pA
- Rheobase Shift; Rat DRG Neurons, Baseline (rat DRG neurons; Baseline, no ligand): 140 ± 19 pA
